Measurements reported in the DeepSol protein solubility set.

Experiment: soluble on expression in E. coli; label from the status in PepcDB or PDB records

Soluble on expression in E. coli, not soluble:
MGSDKIHHHHHHMSQPVWPNFYIIGAVKSGTTSLYAYLRQHPQVFLPAMKEPHFFTQPHPSPEQRHWIQYVGNVEQYQQLYRGAERFPRIGDASPSYLWCEEAPERIHAVQPDARIIVILRDPVQRAHAQYLMDFNEGVLDLPFVEALQRDWTRPDKGWGISQLYVELGRYTAQIMRYQQQFGAGQVHVCLLEDLKKNPLAVLEDIADFLEIDRGPLHDMDLETVHNVHRLPRGNWARQLASGHISRYIGEHLFPRTWGEFVWRNVFLREGRKPPMDAEARSFLQAIYTPEIERLEQLLGRPLPELRISWKFSEPAGQSLSTALPPKPSGNR, MGSDKIHHHHHHMSQSKPLFPLNAWYAVAWDHEVKHALTPRKLCNLDVVLYRTTAGAVVALEDACWHRLVPLSMGKLRGDDVVCGYHGLVYNAQGRCVHMPSQETINPSACVRGFPVAEKHRYVWVWPGDPAQADVALIPDLHWSHDPAWAGDGRTIHAKCDYRLVLDNLMDLTHETFVHGSSIGQDEVAEAPFEVVHGDRTVTVSRWMHNIDPPPFWAGQIARHLNYHGKVDRWQIIHFEAPGTIAIDVGVAITGTGAPQGDRSQGVNGFVLNTITPETDTTCHYFWAFMRNYALHDQSLTTLTREGVTGVFGEDEAVLEAQQRAIEAHPDHAFYNLNVDAGGMWARRVIDRLIAREQRAGDLSLRMVG, MGSDKIHHHHHHMSQTLLALYGLKWNPFSADLPIAAVSVPPKVEDFCWRIEHALVREGGFALIQGDPGTGKSVILRLLAERLSRLPDLTVGAIHHPQSNLADFYRELGDIFAVSLKPSNRWGGFKALRERWLAHLEATRRRPVLLIDEAQEMNAPVLCELRLLSSARFDSQSLLSVLLAGDARLTEKLRREELVPLGSRIRVRLHTESASRNELLGCLEHLMTEAGNAGLMTAGLCQTLCDHAMGNYRVLTQMAAELLAAATQRQLDQLDEKLFLELYGPAQQPARRKAAH, MGSDKIHHHHHHMSRPKVIVTIAPTGGMASKQQNPHLPTQPEEIASDVYDCYNAGASVVAVHARRPDDGATCDAAIYRDINTRIRAKCDIVINNSTGGGVHGEMIGQASNGYWEILWEERLKGMDAGAELCTLDATTIIATFGGKELLMHTSPERSKHLAVEMKKRGIKPEWEVFSPTHIVQDVAALTAAGFDEEPFFINLVLGVHRNFQNAMPYSPRVLQSMVDLLPKGSIFCVSGIGPAQLPSAMNSLLLGGHVRVGLEDNLYYSAGELATNVQLVERVVRLVREMGYEPATPREAREIMGLPRSSGPRPDFAMQ, MGSDKIHHHHHHMSRRTQIADMRLSSGVPGFDELIEGGLLPNRLYVVSGPPGSGKTTFCSQFITQGVKEGETCLYVTMHETKTELMQDMAGYDFGFDRAMQSDAIQFLNLVTESGKRTITQFGNEGGLTNRLVAYIRQNDIQRVVIDSTMLLQHFMADVEDEITGFLSALKQTDATTLLISEMTDPSSYSDEHYLAHGVVFFHNFLENGSMTRGVQVIKMRGTAIDCDIREISFSDAGLQVHTDRKVET, MGSDKIHHHHHHMSSADLLAPYRGPLTVEQVATGMNAATANARRLAQDARLLLANKRWPTAASLAALSIEESGKVVILRRFVTANTDDIKRLWKEYRTHTKKNINWILPELVAKGARRLEDFKPIVDSASDHPDILDAMKQIGFYTDCLGKTNWSRPTEVVDETLAKNLVNAAEVLSPDRNISVRELELWAEHMGPVWNKNLDWMKQALVNWYGAMQAEGLMPAGSNKMQAFVKEGLATDQAKQIGREV, MGSDKIHHHHHHMSSATHYILTWQCPDNTGVLAKVSQSLFSHGAFITETSQYSDPYSETFFSRIAFDDRNLTVSSSEFVKALNELAKPLAMQYQLRKRADVPNVLIAVSKDDHCLVSLLTKWRSGALPINIVGVISNHQYCQALSEWHNVPFYHLPVNAETKLEQEAQITDLMEELNIDLLVLARYMQILSDGLCQQLQGKAINIHHSFLPSFKGARPYHQAHARGVKVIGATAHYVTANLDEGPIIAQEVKPINHAFTIEQMVHMGHDLEATALSHAVRIHAEQRVCINGDKTVILA, MGSDKIHHHHHHMSSIVLAVGNGKTLFGGSGVAPDADLVRFVDPESPIINAFDLCALRGDGIFEATTVWRGFPVSLENHLKRLANSARLVDMPEPNIPALTRAVQLVIDQYDDPEPGPMLRIIVSRGLDPDTGVGKAADRTPTVYIFLDAKGTLHSLEPITMASMTRGYPSDITARAPWLLNGAKTLSYAFNCAVHRECARRGVGDAILFTEDGYTMECPNSSIVARYGDTFVTPDPRIGILNGTSQREMFAWALEEGKKAEYRKLPIAELREADSLYMTHGGWSIPISAIDGRALAVDAAEIQAINDAIHSGRTHEDALKIGPTGDYE, MGSDKIHHHHHHMSSKVAKELADFLLQIEQRSQFHAGYPYNLSCDYSAIGKFFNHLLNNAGDPYIEPDFGLHSRKFEQEVLSFFAHLYKIPENQFWGYVTAGGTEGNLYGIFLAREIYPNGILYSSQDSHYSIPKAAKLFRIQHNVVNSQINGEMNYDHFEQLLSENRRYPAIINLNIGTTVKGAIDNLDKVLEILERNQIKDYYIHCDAALSGLILPFLDGAPQVNFQKPIDSVAISAKFIGSPLPCGVVLTKKKWVEKVETEIEYIGSKDTTILGSRNGHTPLILWYAVQTRGYDGLAKEAKTCIHNAQYLFQQLQIREYPCMLNNFSNTVVFQKPSQRLIKKWQLAVFENWAHMIVMQNIVREKIDIFINELLLEQGLLNNAKNFQLQPVLQH, MGSDKIHHHHHHMSSPLLTMRGIRKSYAGVHALVDGNLDLERGQIHALCGGNGAGKSTILGILMGFTRPDCGEIRIEGKPVSFANPTQALQAGIAIVQQELSGVPHLTVAENIYLGAEPRRRGFVDFPQLNRQAEELLASLGFDIDPRVPLASLSIASQQLIEIAKALSRRDADILIFDEPTSAIGEKDTLRLFEVLRDLAAAGKGIIYVTHRLAEVFTIADSYTVFKDGARIETGRVADITREKLIESMIGGAIEGEYVKENVPSDRPLLDVRGLSRAPWFDRVSFTLHAGEILGIYGLVGSGRSQLLDTIYGLYPADAGTVWVEGREIRPGRVRAALGAGISYVTEDRKHSGLVLCASVGDNLSLSQLPHIQRFGFIRTALERAGIDDSIAKMRIKTPGPEQIVRNLSGGNQQKVVFGRCTSIGPKVLLLDEPTRGVDVGAKKEIYRFVSDFTKAGGAVLMVSSELDEITGMSDRIIVIKKGAHVAEFPREETTQKALMMAAV, MGSDKIHHHHHHMSSSPSTLNFGSMTDVFGFLIEIDKLKSVQRRTKIIGSERHEDSAEHSWHFAVAAMALAPYAGEGVDIQRVIQMALIHDIVEIDAGDVIVYDLSARLAIHDQEVAAAARIFGLLPEPQRQQFQDLWEEYEANETPSAQFALVLDRVMPMLMNLYNGGQSWVENGIRLEQVLDRAEFIATINPELWQYMKQHLEDAKAKGWLL, MGSDKIHHHHHHMSTEPLASRMRPKNIDEIISQQHLVGPKGIIRRMVDTKKLTSMIFYGPPGIGKTSIAKAISGSTQYKFRQLNAVTNTKKDMQLVVEEAKMSGQVILLLDEIHRLDKAKQDFLLPHLENGKIVLIGATTSNPYHAINPAIRSRAQIFELYPLNDEDVRQALTRAIEDDENGLKTYQPKIDEDAMTYFSTQSQGDVRSALNALELAVLSADNDKDGYRHVTLQDAKDCLQKGAFVSDKDGDMHYDVMSAFQKSIRGSDVNAALHYLARLIEAGDLPTIVRRLLVISYEDIGLASPNAGQRTLAAIESAERLGLPEARIPLSQAVIELCLSPKSNSAMSAIDSALSDIRNGHVGQIPNHLKDGHYQGAKDLGRSIGYKYPHQYVNGYVSQQYLPDKLKNKIYYEPKTTSKSEQQLKEIYNNLLKQRP, MGSDKIHHHHHHMSTKHAKAAEKFLENPVMAAWHNETLWMVRAKRDKMSKEVPEWEELRDKACALKLYSNSHLEELLLEFEKNATANGAIVHWAKDAEEYRAIVYEILSSHGVKHFVKSKSMLAEECELNPFLIEKGIDVVESDLGERILQLMNLAPSHIVLPAIHIKREQVGELFEKEMGTEKGNFDPTYLTHAARKNLRNIFLNAEAAMTGANFAVASTGDIVVCTNEGNADMGTSCPTLNIAAFGMEKIVPDMEALGVFTRLLARSATGQPITTYTSQYRNPREGGEYHIIIVDNGRSALLAHPDHIKTLNCIRCGACMNTCPVYRRSGGYSYTYFIPGPIGINLGMAHDPEKYYDNLSACSLCMSCSDVCPAKVDLAEQIYKWRQDLDKIGKANTGKKIMSGGMKVLMDHPTLFNAALWAAPVVNHLPRFMKYNDLDAWGKGRELPKFAGESFNEMWKKNKVQGKEENK
